The results in this text go back to publication PMC6858323, “Multiple conformations facilitate PilT function in the type IV pilus” (Nature Communications, 2019).

First the molecules themselves.
B1: PilT^Pa two-hybrid fusion from pKT25::PilT^Pa (wild type) [Pseudomonas aeruginosa] / PilC^Pa two-hybrid fusion from pUT18C::PilC^Pa [Pseudomonas aeruginosa] (parent)
chain 1: MDITELLAFSAKQGASDLHLSAGLPPMIRVDGDVRRINLPPLEHKQVHALIYDIMNDKQRKDFEEFLETDFSFEVPGVARFRVNAFNQNRGAGAVFRTIPSKVLTMEELGMGEVFKRVSDVPRGLVLVTGPTGSGKSTTLAAMLDYLNNTKYHHILTIEDPIEFVHESKKCLVNQREVHRDTLGFSEALRSALREDPDIILVGEMRDLETIRLALTAAETGHLVFGTLHTTSAAKTIDRVVDVFPAEEKAMVRSMLSESLQSVISQTLIKKIGGGRVAAHEIMIGTPAIRNLIREDKVAQMYSAIQTGGSLGMQTLDMCLKGLVAKGLISRENAREKAKIPENF
chain 2: MLVKAHLRKQGINPLKVRKKGISLLGAGKKVKPMDIALFTRQMATMMGAGVPLLQSFDIIGEGFDNPNMRKLVDEIKQEVSSGNSLANSLRKKPQYFDELYCNLVDAGEQSGALENLLDRVATYKEKTESLKAKIRKAMTYPIAVIIVALIVSAILLIKVVPQFQSVFQGFGAELPAFTQMVVNLSEFLQEWWLAVIVGVGAIGFTFKELHKRSKKFRDTLDRTILKLPIFGGIVYKSAVARYARTLSTTFAAGVPLVDALDSVSGATGNIVFKNAVSKIKQDVSTGMQLNFSMRTTSVFPNMAIQMTAIGEESGSLDEMLSKVASYYEEEVDNAVDNLTTLMEPMIMAVLGVLVGGLIVAMYLPIFQLGNVVG
B2: PilT^Pa two-hybrid fusion from pKT25::PilT^Pa (wild type) [Pseudomonas aeruginosa] / PilT^Pa two-hybrid fusion from pUT18C::pilT [Pseudomonas aeruginosa] (parent)
chain 1: B1 chain 1
chain 2: B1 chain 1

Variants of B1 are the subject of the first assay. The assay is described as follows: bacterial two-hybrid (BACTH), β-galactosidase activity. The settings on record: with PilC^Pa two-hybrid fusion from pUT18C::PilC^Pa [Pseudomonas aeruginosa]; E. coli BTH101; n = 3; parent: 650; read off a plot.
Take chain 1 H229A: the response stood at 650 Miller units.

Consider chain 1 E204A, for which the response is 460 Miller units.

Variants of B2 are the subject of a further assay. Described as above. The settings on record: with PilT^Pa two-hybrid fusion from pUT18C::pilT [Pseudomonas aeruginosa]; E. coli BTH101; n = 3; parent: 9.3e+03; read off a plot.
For chain 1 K58Q, the response turned out to be 10000 Miller units.

Turning to chain 1 K58R, the response was determined as 11000 Miller units.

Consider chain 1 K58A, for which the response amounted to 10000 Miller units.

Take chain 1 H229A: the response is 11000 Miller units.

Consider chain 1 E258A, for which the response stood at 9300 Miller units.

On to chain 1 E219K, for which the response was found to be 8600 Miller units.

For the variant chain 1 T216R, the response was determined as 10000 Miller units.

Regarding chain 1 R239A, the response came to 11000 Miller units.

On to chain 1 E204A, for which the response worked out at 8000 Miller units.

Consider chain 1 R294E, for which the response stood at 8600 Miller units.

chain 1 D31K: the response turned out to be 7000 Miller units.

As to chain 1 R123D, the response turned out to be 8000 Miller units.

On to chain 1 D242K, for which the response amounted to 8000 Miller units.
